Patent US20100092484A1 (published 2010)

T1: cynomolgus CD44 (on cells) (cynomolgus monkey, UniProt P16070 21-742 (human entry))
T1 chain: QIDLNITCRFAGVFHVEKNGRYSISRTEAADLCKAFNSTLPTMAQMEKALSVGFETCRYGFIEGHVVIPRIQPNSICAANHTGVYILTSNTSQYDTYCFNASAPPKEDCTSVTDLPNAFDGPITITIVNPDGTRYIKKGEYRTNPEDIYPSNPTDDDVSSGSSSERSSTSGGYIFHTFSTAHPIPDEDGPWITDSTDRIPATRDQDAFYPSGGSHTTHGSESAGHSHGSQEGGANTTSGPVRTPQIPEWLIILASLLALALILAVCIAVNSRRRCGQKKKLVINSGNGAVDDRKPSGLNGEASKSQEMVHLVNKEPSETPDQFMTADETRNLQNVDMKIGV

T2: lymphatic vessel endothelial hyaluronan receptor 1 protein (LYVE-1) (R&D, Cat. No. 2089-Ly) (UniProt Q9Y5Y7 24-232, limits assumed)
T2 sequence (looked up): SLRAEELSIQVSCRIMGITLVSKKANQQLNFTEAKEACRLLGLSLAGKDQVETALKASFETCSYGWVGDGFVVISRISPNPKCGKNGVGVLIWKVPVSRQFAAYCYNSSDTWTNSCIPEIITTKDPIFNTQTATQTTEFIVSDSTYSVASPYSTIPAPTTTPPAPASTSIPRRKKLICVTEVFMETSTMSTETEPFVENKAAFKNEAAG


Experiments:
[1] = molecular target: T3, human CD44 (on cells) (human, UniProt P16070 21-742); assay: cell-based or functional assay
[2] = molecular target: T4, human CD44-IgG1 fusion protein (extracellular domain of human CD44 fused to human IgG1) (human); assay: ELISA: antibody pre-mixed with human CD44-Ig (0.6 µg/ml); inhibition of CD44-Ig binding to plate-coated hyaluronic acid (HA)
T4 construct: also called human CD44-Ig fusion protein; human CD44-Fc fusion protein
Description: (§1) Human anti-CD44 antibodies were evaluated for their ability to inhibit the interaction between HA (Sigma, Cat. No. H5388) and human CD44 protein (SEQ ID NO:3) as described in EXAMPLE 2.
(§2) Binding assays were conducted in 96 well ELISA assay plates (Immunolux HB Maxisorp 96-well plates, Nunc Cat. No. 442-404). On day one, 100 μl of rooster comb HA diluted in 50 mM Nabicarb buffer, pH 9.6 at 2.5 mg/ml was added to assay wells on the plate and incubate at 4° C. overnight. Approximately, 24 hours later the HA coated plates were washed four times using 300 μl of PBS buffer with 0.05% Tween-20 (Sigma, Cat. No. P1379). The plates were then blocked by adding 200 μl of 3% BSA in PBS to each well and incubated for 2 hours at 37° C. The blocked plates were then washed with PBS with 0.05% Tween-20. […] The mixture was incubated at room temperature for 60 minutes and then transferred to the HA-coated plates and incubate at room temperature for one hour. The plates were washed by PBS with 0.05% Tween-20. Anti-human IgG-HRP (Amersham Biosciences, Piscataway, N.J., State, Cat. No. NA933) diluted 1:500 in 1% BSA (to detect CD44-Ig that is bound to HA) were added to each wells and incubate at room temperature. […] The reactions were then stopped with 50 μl of stop solution and OD₄₅₀ values were measured on a plate reader.

[3] = molecular target: T3, human CD44 (on cells); assay: cell-based or functional assay; remark: listed apart in the source
[4] = molecular target: T4, human CD44-IgG1 fusion protein …; assay: BIAcore SPR, human CD44-Fc fusion immobilised on a CM5 chip, antibody as analyte
Description: Surface plasmon resonance was used to measure the molecular interaction on a CM5 sensor chip coated with human CD44-Fc fusion protein (12 μg/ml, 10 mM Acetate, pH 4.0) on the surface. Anti-CD44 Abs at concentration of 5, 3, 2, 1, 0.5 and 0.25 μg/ml were screened by direct method. Human IgG1 and IgG2 standards were used to check nonspecific and background binding. Initial portion of the association and dissociation phase of the curves are used to calculate affinity and rate constants and is reported in TABLE 17.

[5] = molecular target: T3, human CD44 (on cells); assay: cell-based or functional assay; remark: listed apart in the source
[6] = molecular target: T1, cynomolgus CD44 (on cells); assay: cell-based or functional assay
[7] = molecular target: T4, human CD44-IgG1 fusion protein …; assay: BIAcore 2000 SPR, human CD44-Ig immobilised on a CM-5 chip, antibody 100 to 0.1 ug/ml as analyte
Description: Human CD44-Ig (55 RU, 86 RU) and cyno CD44-Ig (99 RU, 116 RU) were immobilized to CM-5 chips at a concentration of 10 ug/ml in 10 mM Na Acetate pH 3.5. […] The chip was then regenerated with 50 mM NaOH and washed with HBS-EP (BIAcore 22-0512-44). Analysis was carried out on the Biacore 2000. Data was analyzed using BIAEvaluation™ software (n=2).

[8] = molecular target: T3, human CD44 (on cells); assay: cell-based or functional assay; remark: listed apart in the source
[9] = molecular target: T3, human CD44 (on cells); assay: FACS competition against labelled anti-CD44 antibody MEM-85 on cells bearing human CD44; cells: 300-19 cells transfected with human CD44 per legend paragraph 42, but the range 0.2 to 20 µg/ml is that of the human peripheral T cell study in paragraph 322
[10] = molecular target: T3, human CD44 (on cells); assay: FACS equilibrium binding analysis on 300-19 cells transduced with human CD44; printed as 'binding constant'
Description: The 300-19 cells which were transduced with retroviral vector encoding human CD44 protein and were washed two times by PBS. […] After 3 hours the cells were washed twice with FACS buffer. The cells were resuspended into 250 μl of 1% paraformaldehyde, (Electron Microscopy Science, Ft. Washington, Pa., Cat. No. 15710). The tubes were read using Becton Dickinson FACSCalibur and the data was analyzed using CellQuest Pro (Becton Dickinson).

[11] = molecular target: T4, human CD44-IgG1 fusion protein …; assay: ELISA: antibody pre-mixed with human CD44-Ig (0.6 µg/ml); inhibition of CD44-Ig binding to plate-coated hyaluronic acid (HA, a polysaccharide)
Description: as §1, §2

[12] = molecular target: T1, cynomolgus CD44 (on cells); assay: cell-based or functional assay
[13] = molecular target: T4, human CD44-IgG1 fusion protein …; assay: ELISA on plate-coated CD44-Ig against plate-coated LYVE-1
Description: (§3) A 96 well ELISA plate (Immuno Maxisorp plate, Nunc Cat. No. 442-404) was coated with 50 ng CD44-Ig fusion protein or LYVE-1 and incubated overnight at 4° C. The plates were then washed by PBS, 0.05% Tween-20 and blocked by 3% BSA in PBS for two hours at room temperature. […] The ELISA plates were incubated at room temperature for 1.5 hours. […] Plates were washed again, and […] of TMB were added and incubated for 5 to 10 minutes. ELISA reactions were stopped with stop solution and OD450 values were measured by a plate reader.

[14] = molecular target: T4, human CD44-IgG1 fusion protein …; assay: ELISA on plate-coated CD44-Ig (50 ng), anti-human kappa-HRP detection
Description: as §3

[15] = molecular target: T2, lymphatic vessel endothelial hyaluronan …; assay: ELISA on plate-coated LYVE-1 (50 ng), anti-human kappa-HRP detection
Description: as §3

Row | IC50 of IL-1β release from purified human PBMC stimulated by HA [1] [µg/mL] | IC50 [2] [µg/mL] | IC50 of reduction of CD44 surface expression on human peripheral CD3+ T cells (FACS) [3] [µg/mL] | Kd [4] [nM] | koff [4] [s⁻¹] | IC50 of IFN-γ release from human peripheral blood activated by anti-CD3 and anti-CD28 antibodies [8] [µg/mL] | IC50 of IL-2 release from human peripheral blood activated by anti-CD3 and anti-CD28 antibodies [8] [µg/mL] | IC50 of reduction of CD44 surface expression on cynomolgus peripheral CD3+ T cells (FACS) [12] [µg/mL] | fold selectivity for CD44 over LYVE-1 [13] [fold] | EC50 [14] [µg/mL] | binding result [15] | Binder | further results
1 | 0.4 | 0.64 | > 20 | – | – | – | – | – | – | – | – | anti-CD44 monoclonal antibody 10C8.2.3 (antibody, human IgG4, kappa, V domains shown) VH: EVQLMESGGGLVKPGGSLRLSCAASGFTFSSYSMNWVRQAPGKGLEWVSSITVRSSYIYYADSVKGRFTISRDNAKNSLYLQMNSLRAEDTAVYYCARVLAIAVPGTSYYYYGMDVWGQGTTVTVSS VL: not shown | –
2 | 0.83 | – | 2.8 | 0.6 | 0.000576 | 2.46 | 0.58 | 0.82 | > 100 | 0.011 | no binding (tested: 10 µg/ml) | anti-CD44 monoclonal antibody 1A9.A6.B9 (antibody, human IgG2, kappa, V domains shown, also called mAb 1A9.A6.B9) VH: QVQLVESGGGVVQPGRSLRLSCAASGFTFSSYGMHWVRQAPGKGLEWVAVIWYDGSNKFYADSVKGRFTISRDNSKNTLYLQMNSLRAEDTAVYYCARRSDYRGYYGMDVWGQGTTVTVSS VL: EIVLTQSPATLSLSPGERATLSCRASQSVINYLAWYQQKPGQAPRLLIYDASNRASGIPARFSGSGSGTDFTLTISSLEPEDFAVYYCQQRRNWPLTFGGGTKVEIKR | IC50 of reduction of CD44 expression on human peripheral blood B cells (FACS) [5]: 2.4 µg/mL; IC50 of reduction of CD44 expression on human peripheral blood T cells (FACS) [5]: 2.6 µg/mL; IC50 of reduction of CD44 expression on human peripheral blood monocytes (FACS) [5]: 3.3 µg/mL; IC50 of reduction of CD44 expression on cynomolgus peripheral blood T cells (FACS) [6]: 1.1 µg/mL; Kd [7]: 0.051 nM; koff [7]: 0.00039 s⁻¹; IC50 (read off the curve) [9]: ~3 µg/mL; Kd [10]: 6.8 nM; IC50 [11]: 0.41 µg/mL
3 | – | – | – | – | – | – | – | – | – | – | no binding (tested: 10 µg/ml) | anti-CD44 monoclonal antibody 14G9.B8.B4 (antibody, human IgG1, kappa, V domains shown) VH: QVQLVQSGAEVKKPGASVKVSCKASGYTFTNYAMHWVRQAPGQRLEWMGWINTGNGNTKYSQKFQGRVTITRDTSASTAYMELSSLRSEDTAVYYCARFYSGSGSPWGQGTLVTVSS VL: not shown | –
4 | – | – | – | – | – | 2.45 | 0.46 | – | – | – | – | 2D1 WT/H38Q (mutated antibody 2D1.A3.D12: wild-type heavy chain, light chain H38Q) (antibody, human IgG1, kappa, V domains shown) VH: QVQLVQSGAEVKKPGASVKVSCKASGYIFTSYAMHWVRQAPGQRLEWMGWINAAIGSTKYSQKFQGRVTITRDTSASTAYMELSSLRSEDTAVYYCARDGWEDYYYHGMDVWGQGTTVTVSS VL: DIQMTQSPSSVSASVGDRVTITCRASQGISSWLAWYQQKPGKAPKLLIYAASSLQSGVPSRFSGSGSGTDFTLTISSLQPEDFATYYCQQANNFPWTFGQGTKVEIKR | –
5 | 0.23 | 0.33 | > 20 | 2.01 | 0.000653 | – | – | > 20 | > 100 | 0.024 | no binding (tested: 10 µg/ml) | anti-CD44 monoclonal antibody 2D1.A3.D12 (antibody, human IgG1, kappa, V domains shown) VH: QVQLVQSGAEVKKPGASVKVSCKASGYIFTSYAMHWVRQAPGQRLEWMGWINAAIGSTKYSQKFQGRVTITRDTSASTAYMELSSLRSEDTAVYYCARDGWEDYYYHGMDVWGQGTTVTVSS VL: DIQMTQSPSSVSASVGDRVTITCRASQGISSWLAWYQHKPGKAPKLLIYAASSLQSGVPSRFSGSGSGTDFTLTISSLQPEDFATYYCQQANNFPWTFGQGTKVEIKR | –
